US20220227887A1 (ONO PHARMACEUTICAL, published 2022)

B1: anti-mouse LAG3 antibody TKB58 (antibody, V domains shown)
VH: VQLQQSGAELVRPGALVKLSCKASGFNIKDYYMHWVKQRPEQGLEWIGWIDPENGNTIYDPKFQDKASLTADTSSNTAYLQLSSLTSEDTAVYYCAPERGYDYAMDYWGQGTSVTVSS
VL: IVLTQSPATLSVTPGDSVSLSCRASQSISNNLHWYQQKSHESPRLLIKYASQSISGIPSRFSGSGSGTDFTLSINSVETEDFGMYFCQQSNSWPQYTFGGGTKLEIK
notes: Full-form antibody; also called TKB58 antibody; full-form anti-mouse LAG3 antibody
B2: bispecific molecule 2C11xTKB58 (bispecific antibody)
chain: DAAQPAREVQLVESGGGLVQPGKSLKLSCEASGFTFSGYGMHWVRQAPGRGLESVAYITSSSINIKYADAVKGRFTVSRDNAKNLLFLQMNILKSEDTAMYYCARFDWDKNYWGQGTMVTVSSGGGGSIVLTQSPATLSVTPGDSVSLSCRASQSISNNLHWYQQKSHESPRLLIKYASQSISGIPSRFSGSGSGTDFTLSINSVETEDFGMYFCQQSNSWPQYTFGGGTKLEIKGGGGSGGGGSGGGGSVQLQQSGAELVRPGALVKLSCKASGFNIKDYYMHWVKQRPEQGLEWIGWIDPENGNTIYDPKFQDKASLTADTSSNTAYLQLSSLTSEDTAVYYCAPERGYDYAMDYWGQGTSVTVSSGGGGSDIQMTQSPSSLPASLGDRVTINCQASQDISNYLNWYQQKPGKAPKLLIYYTNKLADGVPSRFSGSGSGRDSSFTISSLESEDIGSYYCQQYYNYPWTFGPGTKLEIKGGGGSDYKDDDDKNSAVDHHHHHH
notes: Used as culture supernatant of transfected PlatE cells
B3: bispecific molecule TKB58xYTS169 (bispecific antibody)
chain: DAAQPARVQLQQSGAELVRPGALVKLSCKASGFNIKDYYMHWVKQRPEQGLEWIGWIDPENGNTIYDPKFQDKASLTADTSSNTAYLQLSSLTSEDTAVYYCAPERGYDYAMDYWGQGTSVTVSSGGGGSDIVLTQSPAMAMSPGERITISCRASESVSTRMHWYQQKPGQQPKLLIYGASNLESGVPARFSGSGSGTDFTLTIDPVEANDTATYFCQQSWYDPWTFGGGTKLELKGGGGSGGGGSGGGGSEVKLQESGGGLVQPGRSLKLSCAASGFNFNDYWMGWVRQAPGKGLEWIGEINKDSSTINYTPSLKDKFTISRDNAQNTLYLQMSKLGSEDTAIYYCARARGMMVLIIPHYFDYWGQGVMVTVSSTGGGGSIVLTQSPATLSVTPGDSVSLSCRASQSISNNLHWYQQKSHESPRLLIKYASQSISGIPSRFSGSGSGTDFTLSINSVETEDFGMYFCQQSNSWPQYTFGGGTKLEIKGGGGSDYKDDDDKNSAVDHHHHHH
notes: as for B2

Key:
[1] = target: T1, monomeric mouse LAG3-EC (strep-tagged) (mouse, UniProt Q61790 24-422, limits assumed); experiment: biolayer interferometry (BLItz), strep-tagged monomeric mouse LAG3-EC on the biosensor, antibody at 66.67, 200, 666.7 and 2000 nM
T1 construct: It was immobilized on a streptavidin-coated biosensor; also called mouse LAG3 soluble protein; not shown: C-terminal strep tag
T1 sequence: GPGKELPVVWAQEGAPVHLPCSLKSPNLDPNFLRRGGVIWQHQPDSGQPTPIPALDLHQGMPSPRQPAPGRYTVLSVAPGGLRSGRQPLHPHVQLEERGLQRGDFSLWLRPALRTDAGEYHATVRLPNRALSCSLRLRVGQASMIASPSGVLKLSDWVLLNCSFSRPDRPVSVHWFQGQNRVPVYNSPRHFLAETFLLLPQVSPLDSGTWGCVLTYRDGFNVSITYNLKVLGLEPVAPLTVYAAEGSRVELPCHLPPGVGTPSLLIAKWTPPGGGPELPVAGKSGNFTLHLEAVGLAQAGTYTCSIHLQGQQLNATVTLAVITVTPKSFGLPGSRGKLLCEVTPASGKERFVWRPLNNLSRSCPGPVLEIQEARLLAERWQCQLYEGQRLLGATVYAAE
Procedure: (§1) The binding affinity of anti-mouse LAG3 antibodies (TKB58 and C9B7W) to a mouse LAG3 soluble protein was measured by biolayer interferometry. Briefly, cDNA fragments encoding D1 to D4 (LAG3-EC) of mouse LAG3 were amplified by PCR. A strep tag was added to the C-terminus of LAG3-EC. The chimeric cDNA was cloned into an expression vector modified from pEBMulti-Neo (Wako). Plat-E cells were transfected with the plasmid using Avalanche-Omni Transfection Reagent (EZ Biosystems) and the culture supernatant was collected after 48 hours. Monomeric mouse LAG3-EC (strep-tagged) was immobilized on a streptavidin-coated biosensor chip (Pall ForteBio) and binding of anti-mouse LAG3 antibodies at various concentrations was monitored with BLItz (Pall ForteBio). The chips were washed with PBS and the dissociation rates were analyzed. The binding rate constant (ka), the dissociation rate constant (kd), and the dissociation constant […] were calculated with BLItz Pro software. In TKB58, as compared with a case in C9B7W, ka was about 26 times faster and kd was 3.6 times slower.

[2] = target: T1, monomeric mouse LAG3-EC (strep-tagged); experiment: biolayer interferometry (BLItz); reference C9B7W
Procedure: as §1

[3] = target: T2, mouse LAG3 (wild type), forcibly expressed on DO11.10 or B3Z cells (mouse, UniProt Q61790 24-521); experiment: flow cytometry of DO11.10-mLAG-3 cells (CD3ε +, LAG-3 +) stained with culture supernatant, detected with anti-FLAG tag antibody
T2 construct: The whole entry is named; also called mLAG3; mLAG3 WT
T2 sequence: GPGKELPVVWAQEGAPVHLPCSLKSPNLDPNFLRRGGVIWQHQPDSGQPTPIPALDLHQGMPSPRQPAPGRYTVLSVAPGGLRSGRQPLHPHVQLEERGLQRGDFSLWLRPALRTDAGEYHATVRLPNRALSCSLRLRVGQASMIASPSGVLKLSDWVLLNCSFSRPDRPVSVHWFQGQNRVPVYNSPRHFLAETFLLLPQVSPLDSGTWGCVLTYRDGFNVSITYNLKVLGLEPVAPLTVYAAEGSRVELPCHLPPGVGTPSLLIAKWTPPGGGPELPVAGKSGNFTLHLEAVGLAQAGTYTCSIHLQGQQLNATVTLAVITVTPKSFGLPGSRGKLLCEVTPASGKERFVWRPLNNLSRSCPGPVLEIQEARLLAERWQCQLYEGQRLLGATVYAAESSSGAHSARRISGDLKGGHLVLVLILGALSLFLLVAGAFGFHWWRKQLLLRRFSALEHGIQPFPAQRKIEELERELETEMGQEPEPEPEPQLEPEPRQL
Description: A nucleic acid encoding the heavy and light chain variable regions of an anti-mouse LAG3 antibody (TKB58) and an anti-mouse CD3s antibody (2C11) was synthesized, amplified by PCR, and was cloned into an expression plasmid vector produced by modifying pEBMulti-Neo (Wako) or pSecTag2/Hygro (Thermo Fisher Scientific), whereby expression plasmids of bispecific molecules 2C11xTKB58 (SEQ ID NO: 31) and TKB58x2C11 (SEQ ID NO: 32) recognizing mouse LAG3 and […] were produced. The expression plasmid was transfected into PlatE cells using Avalanche-Omni Transfection Reagent (EZ Biosystems), and the culture supernatant was collected after 48 hours. BW5147, DO11.10, and DO11.10-mLAG3 cells were stained using the culture supernatant.

[4] = target: T2, mouse LAG3 (wild type), forcibly …; experiment: flow cytometry of cells stained with culture supernatant
Description: A nucleic acid encoding the heavy and light chain variable regions of an anti-mouse LAG3 antibody (TKB58) and an anti-mouse CD8 antibody (YTS169) was synthesized, amplified by PCR, and was cloned into an expression plasmid vector produced by modifying pEBMulti-Neo (Wako), whereby an expression plasmid of a bispecific molecule TKB58xYTS169 (SEQ ID NO: 33) recognizing mouse LAG3 and mouse CD8 was produced. The expression plasmid was transfected into PlatE cells using Avalanche-Omni Transfection Reagent (EZ Biosystems), and the culture supernatant was collected after 48 hours. DO11.10, DO11.10-mLAG3, B3Z, and B3Z-mLAG3 cells were stained using the culture supernatant.

Molecule | Kd [1] | koff [1] | kon [1] | further results
anti-mouse LAG3 antibody C9B7W | 414 nM | 0.00392 s⁻¹ | 9480 M⁻¹ s⁻¹ | –
B1 | 4.39 nM | 0.0011 s⁻¹ | 251000 M⁻¹ s⁻¹ | fold faster ka against C9B7W [2]: ~26 times; fold lower KD against C9B7W [2]: 94 times; fold slower kd against C9B7W [2]: 3.6 times
B2 | – | – | – | binding result [3]: binds
B3 | – | – | – | binding result [4]: binds
